“Also recorded” adds a separate entry of the source.
Experiments:
[1] = in vivo
[2] = Biodistribution in PC-3 tumor-bearing mice; type: in vivo, athymic nude male mice
Experimental: (§1) For all tumor studies, 1 × 10^6 PC-3 cells were implanted subcutaneously into the right flank of each mouse in a mixture of equal volumes of HC-Matrigel (high concentration; Corning) and RPMI medium (Gibco) and grown to a volume of about 200–300 mm^3.
(§2) PC-3 tumors were grown in male mice until an approximate tumor volume of 300 mm^3 was reached. […] The background was automatically subtracted from the counts. A standard was also used for decay correction, and the percent injected dose (%ID) per gram of tissue was calculated for each organ collected.
(§3) FIGURE 3. In vivo distribution of [^212Pb]Pb-DOTAM-GRPR1. (A) In athymic nude male mice carrying subcutaneous PC-3 tumors, 370 kBq of drug were administered and organs were collected from 5 mice per time point: 1, 4, and 24 h after injection. (B) At different specific activity in PC-3 tumor-bearing mice, 370 kBq per 28, 140, or 280 ng of DOTAM-GRPR1 were administered and organs were collected from 5 mice per time point: 1, 4, and 24 h after injection. Tissue uptake is expressed as %ID/g ± SD (n = 5). All tissues with uptake below 2% at 1 h were excluded from graph. ***P = 0.00013 between 280 ng of pancreas and 28 ng of pancreas.

[3] = Dosimetry: absorbed radiation dose calculation from mouse biodistribution; settings: for Estimated absorbed dose, pancreas / Estimated absorbed dose, red marrow / Estimated absorbed dose, urinary bladder wall / Estimated absorbed dose, kidneys / Estimated absorbed dose, spleen / Estimated absorbed dose, liver / Estimated absorbed dose, heart wall / Estimated absorbed dose, stomach (stem cell layer) / Estimated absorbed dose, lungs (alveolar–interstitial): RBE 5, female mice; for Estimated absorbed dose, red marrow: dose limit 2; for Estimated absorbed dose, urinary bladder wall: dose limit 20; for Estimated absorbed dose, kidneys: dose limit 23; for Estimated absorbed dose, spleen: dose limit 26; for Estimated absorbed dose, liver: dose limit 30; for Estimated absorbed dose, heart wall / Estimated absorbed dose, stomach (stem cell layer): dose limit 45; for Estimated absorbed dose, lungs (alveolar–interstitial): dose limit 65; for Administered activity at which 23-Gy kidney threshold is reached: female mice as printed, projected mean absorbed dose by modeling
Experimental: Physical decay was used to extrapolate after the last time point. The human equivalent time-integrated activity coefficient for both sexes was calculated by extrapolating mouse biodistribution data to human using standard methods assuming that tissue concentration divided by whole-body concentration in mice is the same as that in humans.
The linear energy transfer of α-particles is approximately 400 times greater than that of photons and β-particles. This difference in energy deposition density leads to fundamentally different biologic effects. Accordingly, the absorbed doses for these different emission types should be weighted appropriately to reflect likely biologic effects. The relative biological effectiveness (RBE) is the appropriate weighting factor for deterministic effects such as tissue toxicity and tumor kill efficacy. The tissue-absorbed doses (with RBE values of 3 and 5) for ^212Pb compounds were calculated.

[4] = in vivo; remark: listed apart in the source
[5] = Biodistribution in tumor-free CD-1 mice; type: in vivo
[6] = Biodistribution at different specific activity (28, 140, 280 ng peptide); type: in vivo, PC-3 tumor-bearing mice
Experimental: as §1, §2, §3

[7] = system: PC-3 xenograft tumors; test: α-imaging and biodistribution in PC-3 tumors of varying size; type: in vivo, mice
Experimental: as §1
Images were analyzed using Andor Solis software (ImageJ).
FIGURE 5. Biodistribution in varying-size tumors and drug microdistribution in tumor using α-imaging of [^212Pb]Pb-DOTAM-GRPR1. […] (B) Biodistribution of drug at 4 h after injection in tumors measuring 150 mm^3 (n = 5), 300 mm^3 (n = 6), 600 mm^3 (n = 4), and 900 mm^3 (n = 3). In left panel, tissue uptake is expressed as %ID/g ± SD (P < 0.05). Right panel is expressed as %ID ± SD. H&E = hematoxylin and eosin; LWH = length × width × height.

[8] = Toxicity (dose escalation) study in tumor-free nude mice
Experimental: Control mice received buffer only. Animals were weighed 3 times per week and monitored daily for signs of pain or distress over a 4-wk period after the last injection. Blood was sampled via the submandibular vein using potassium–ethylenediaminetetraacetic acid capillaries and tubes (Greiner Bio-One), and complete cell blood counts were performed using a VETSCAN HM5 hematology analyzer (Abaxis/Zoetis). Animals were euthanized at the scheduled termination or when the termination criteria were met.
Mice were euthanized when tumor volumes reached 1,000 mm^3 (length × width × height) or other predetermined termination criteria were met (weight loss > 15% for 2 consecutive days or 20% weight loss from initial weight, serious bleeding, necrosis or ulceration of the tumor, scruffiness or lack of grooming over 5 d, lethargy over 3 d, weakness/balance issues over 5 d, hunchback appearance, diarrhea, or hypothermia).

[9] = 370 kBq per 28, 140 or 280 ng DOTAM-GRPR1, PC-3 tumor-bearing mice

Compound: CC(C)C[C@H](NC(=O)C[C@H](O)[C@H](CC(C)C)NC(=O)[C@H](Cc1c[nH]cn1)NC(=O)CNC(=O)[C@@H](NC(=O)[C@H](C)NC(=O)[C@H](Cc1c[nH]c2ccccc12)NC(=O)[C@H](CCC(N)=O)NC(=O)[C@@H](Cc1ccccc1)NC(=O)CCNC(=O)CCNC(=O)CN1CCN(CC(N)=O)CCN(CC(N)=O)CCN(CC(N)=O)CC1)C(C)C)C(N)=O [[^212Pb]Pb-DOTAM-GRPR1, metal not drawn]
- Effect of renal blockers on kidney retention [1]: neither agent reduced the kidney retention
- PC-3 tumor uptake over time ([2]; 4–24 h after administration, 370 kBq, intravenous, athymic nude male mice, n = 5 per time point): remained constant for 4–24 h after drug administration
- Washout, pancreas versus tumor ([2]; PC-3 tumor-bearing mice): faster washout was observed from the pancreas than from tumor tissues
- tissue uptake at 1 h ([2]; mouse, PC-3 tumor, 1 h after administration, 370 kBq, intravenous (tail vein), athymic nude male mice, n = 5 per time point): ~5 %ID/g
- Biodistribution profile, activity in nontumor tissues ([2]; nonclinical, mice): safe biodistribution profile with a considerably low activity in nontumor tissues
- Tumor targeting ([2]; up to value, over 24 h, intravenous, GRPR-positive prostate tumor-bearing mice): up to 5 percent injected dose per gram
- Kidney uptake compared with radiolabeled somatostatin receptor ligands such as [^212Pb]Pb-DOTAMTATE with renal blocker ([2]; without renal blocker, comparator ref 9): well below kidney retention values of radiolabeled somatostatin receptors ligands
- Radiation type contribution to total absorbed dose [3]: α-radiation comprised most of the total absorbed dose
- Estimated absorbed dose, pancreas ([3]; 0.111 GBq (3 mCi)): 0.287 grays
- Estimated absorbed dose, red marrow ([3]; 0.111 GBq (3 mCi)): 0.001 grays
- Estimated absorbed dose, urinary bladder wall ([3]; 0.111 GBq (3 mCi)): 0.021 grays
- Estimated absorbed dose, kidneys ([3]; 0.111 GBq (3 mCi)): 0.308 grays
- Estimated absorbed dose, spleen ([3]; 0.111 GBq (3 mCi)): 0.018 grays
- Estimated absorbed dose, liver ([3]; 0.111 GBq (3 mCi)): 0.109 grays
- Estimated absorbed dose, heart wall ([3]; 0.111 GBq (3 mCi)): 0.007 grays
- Estimated absorbed dose, stomach (stem cell layer) ([3]; 0.111 GBq (3 mCi)): 0.044 grays
- Estimated absorbed dose, lungs (alveolar–interstitial) ([3]; 0.111 GBq (3 mCi)): 0.022 grays
- Estimated absorbed dose, pancreas ([3]; 0.555 GBq (15 mCi)): 1.434 grays
- Estimated absorbed dose, red marrow ([3]; 0.555 GBq (15 mCi)): 0.004 grays
- Estimated absorbed dose, urinary bladder wall ([3]; 0.555 GBq (15 mCi)): 0.103 grays
- Estimated absorbed dose, kidneys ([3]; 0.555 GBq (15 mCi)): 1.540 grays
- Estimated absorbed dose, spleen ([3]; 0.555 GBq (15 mCi)): 0.091 grays
- Estimated absorbed dose, liver ([3]; 0.555 GBq (15 mCi)): 0.543 grays
- Estimated absorbed dose, heart wall ([3]; 0.555 GBq (15 mCi)): 0.036 grays
- Estimated absorbed dose, stomach (stem cell layer) ([3]; 0.555 GBq (15 mCi)): 0.219 grays
- Estimated absorbed dose, lungs (alveolar–interstitial) ([3]; 0.555 GBq (15 mCi)): 0.108 grays
- Estimated absorbed dose, pancreas ([3]; 1.110 GBq (30 mCi)): 2.867 grays
- Estimated absorbed dose, red marrow ([3]; 1.110 GBq (30 mCi)): 0.008 grays
- Estimated absorbed dose, urinary bladder wall ([3]; 1.110 GBq (30 mCi)): 0.206 grays
- Estimated absorbed dose, kidneys ([3]; 1.110 GBq (30 mCi)): 3.080 grays
- Estimated absorbed dose, spleen ([3]; 1.110 GBq (30 mCi)): 0.183 grays
- Estimated absorbed dose, liver ([3]; 1.110 GBq (30 mCi)): 1.086 grays
- Estimated absorbed dose, heart wall ([3]; 1.110 GBq (30 mCi)): 0.071 grays
- Estimated absorbed dose, stomach (stem cell layer) ([3]; 1.110 GBq (30 mCi)): 0.438 grays
- Estimated absorbed dose, lungs (alveolar–interstitial) ([3]; 1.110 GBq (30 mCi)): 0.216 grays
- Dose-limiting organ ([3]; calculated mean effective absorbed dose): kidney as the dose-limiting organ; also recorded: the kidneys were shown to be dose-limiting
- Administered activity at which 23-Gy kidney threshold is reached ([3]; RBE 3): 13.6 GBq
- Administered activity at which 23-Gy kidney threshold is reached ([3]; RBE 5): 8.3 GBq
- Organs with highest absorbed doses ([3]; male and female mice): the kidneys and pancreas revealed the highest doses for both male and female animals; also recorded: The kidneys and pancreas received the highest dose
- Estimated absorbed dose, pancreas ([3]; maximum 8.29 GBq (224.05 mCi)): 21.42 grays
- Estimated absorbed dose, red marrow ([3]; maximum 8.29 GBq (224.05 mCi)): 0.06 grays
- Estimated absorbed dose, urinary bladder wall ([3]; maximum 8.29 GBq (224.05 mCi)): 1.54 grays
- Estimated absorbed dose, kidneys ([3]; maximum 8.29 GBq (224.05 mCi)): 23.00 grays
- Estimated absorbed dose, spleen ([3]; maximum 8.29 GBq (224.05 mCi)): 1.37 grays
- Estimated absorbed dose, liver ([3]; maximum 8.29 GBq (224.05 mCi)): 8.11 grays
- Estimated absorbed dose, heart wall ([3]; maximum 8.29 GBq (224.05 mCi)): 0.53 grays
- Estimated absorbed dose, stomach (stem cell layer) ([3]; maximum 8.29 GBq (224.05 mCi)): 3.27 grays
- Estimated absorbed dose, lungs (alveolar–interstitial) ([3]; maximum 8.29 GBq (224.05 mCi)): 1.61 grays
- Route of excretion [4]: predominantly renal route of excretion
- Pancreas and kidney accumulation at 24 h ([5]; 24 h after injection, pancreas and kidneys, strain not clearly stated): significantly less accumulation by 24 h after injection
- tissue uptake at 4 h ([5]; mouse, all tissues, intravenous, 4 h after drug administration, tumor-free CD-1 mice, 'well below'): < 10 %ID/g
- Nontarget uptake ranking ([5]; pancreas and kidneys, strain not clearly stated): The pancreas and kidneys showed the highest nontarget uptake
- Biodistribution profile / accumulation in normal organs ([5]; tumor-free CD-1 mice): did not reveal any unexpected accumulation in normal organs
- Effect of low specific activity on tumor uptake [6, 9]: did not negatively impact tumor uptake
- Effect of lowering specific activity on off-target accumulation [6, 9]: low specific activity reduced off-target accumulation; also recorded: further reduced off-target accumulation, especially in the pancreas
- Reduction of pancreatic uptake on increasing peptide amount from 28 to 280 ng ([6]; 370 kBq per 28 vs 280 ng DOTAM-GRPR1, PC-3 tumor-bearing mice, n = 5 per time point, P = 0.00013): about 30%
- Correlation of tumor volume and tumor uptake ([7]; 4 h after injection, tumors 150 (n = 5), 300 (n = 6), 600 (n = 4), 900 mm^3 (n = 3), visible in %ID/g but not in %ID): negative correlation between tumor volume and tumor uptake; also recorded: lower tumor uptake in large tumors (%ID/g but not %ID)
- Microdistribution in PC-3 tumors (α-imaging, H&E) ([7]; tumor sizes up to 900 mm^3, except necrotic areas): homogeneous distribution of the drug at various tumor sizes of up to 900 mm^3, except for the necrotic areas; also recorded: homogeneous microdistribution
- Hematologic toxicity or weight loss ([8]; 1,665 kBq, 30 d, athymic nude male mice): no hematologic toxicity or weight loss
- Survival in acute toxicity study ([8]; 1,665 kBq, full 30-d period, athymic nude male mice): all animals survived for the full 30-d period
- Histopathologic examination ([8]; all groups, male athymic nude mice): all groups were essentially within the normal limits
- Tolerability / signs of radiation or lead injury ([8]; doses used, 370–1,665 kBq single or 3 × 370 or 555 kBq, male athymic nude mice): well tolerated at the doses used, with no signs of radiation or lead injury
- Body weight loss ([8]; highest dose: single 1,665 kBq or 3 fractionated doses of 555 kBq, tumor-free nude male mice): body weight loss was minimal after administration and was followed by body weight gain
- Kidneys, gastrointestinal mucosa, bone marrow and other organs ([8]; histopathology, male athymic nude mice): unremarkable
- Toxic dose ([8]; male athymic nude mice, intravenous): more than 1,665 kBq
- Nontoxic dose ([8]; up to, mice, intravenous): up to 1,665 kBq
